In patent US20240115745A1 (3B PHARMACEUTICALS, published 2024):
*1 amine or outer side, *2 acyl side, *3 side chain or, on linkers, in order; H or OH if unused. Bridges are numbered along the chain shown (N, C = ends). Primed or numbered codes have the meaning given here. [ ]: non-standard residue; d: D form. The star is where a group is joined. mli = maleimide cyclization element: 3,4-maleimide inserted symmetrically, forming a vinyl thioether with each Cys sulfur; Ttds = 1,13-diamino-4,7,10-trioxatridecan-succinamic acid, NCCCOCCOCCOCCCNC(=O)CCC(=O)*; mli(DOTA-Ttd) = 3,4-N-(DOTA-Ttd)-maleimide bridging two Cys S atoms as vinyl thioethers; N4Ac = 6-carboxy-1,4,8,11-tetraazaundecane, NCCNCC(CNCCN)C(=O)*; Buur = n-butylaminocarbonyl blocking group, CCCCNC(=O)*; DOTA = O=C(O)CN1CCN(CC(=O)O)CCN(CC(=O)*)CCN(CC(=O)O)CC1; NODAGA = O=C(O)CN1CCN(CC(=O)O)CCN(C(CCC(=O)*)C(=O)O)CC1; Maleimide(3,4-diyl) = O=C1NC(=O)C([*:2])=C1[*:1]; Buur″ = n-butylaminocarbonyl, CCCCNC(=O)*; O2Oc = 3,6-dioxaoctanoic acid; β3hK = NCCCC[C@H](N)CC(=O)O; 4Amb = NCc1ccc(C(=O)O)cc1; hCys = N[C@@H](CCS)C(=O)O; Nle = CCCC[C@H](N)C(=O)O; Hexanoyl = CCCCCC(=O)*

B1: compound Buur-[Cys(mli)-Pro-Pro-Thr-Gln-Phe-Cys]-Asp-Lys(DOTA)-NH2 (2014) (peptide)
peptide: Buur-CPPTQFCDK(DOTA)-NH2
modifications: linker 1-7 via mli
B2: compound Hex-[Cys-Pro-Pro-Thr-Gln-Phe-Cys]-Asp-Lys(DOTA)-NH2 (1016) (peptide)
peptide: Hexanoyl-CPPTQFCDK(DOTA)-NH2
modifications: disulfide 1-7
SMILES: CCCCCC(=O)N[C@H]1CSSC[C@@H](C(=O)N[C@@H](CC(=O)O)C(=O)N[C@@H](CCCCNC(=O)CN2CCN(CC(=O)O)CCN(CC(=O)O)CCN(CC(=O)O)CC2)C(N)=O)NC(=O)[C@H](Cc2ccccc2)NC(=O)[C@H](CCC(N)=O)NC(=O)[C@H]([C@@H](C)O)NC(=O)[C@@H]2CCCN2C(=O)[C@@H]2CCCN2C1=O
B3: compound Hex-[Cys-Pro-Pro-Thr-Glu-Phe-Cys]-Asp-Lys(NODAGA)-NH2 (1020) (peptide)
peptide: Hexanoyl-CPPTEFCDK(NODAGA)-NH2
modifications: disulfide 1-7
SMILES: CCCCCC(=O)N[C@H]1CSSC[C@@H](C(=O)N[C@@H](CC(=O)O)C(=O)N[C@@H](CCCCNC(=O)CCC(C(=O)O)N2CCN(CC(=O)O)CCN(CC(=O)O)CC2)C(N)=O)NC(=O)[C@H](Cc2ccccc2)NC(=O)[C@H](CCC(=O)O)NC(=O)[C@H]([C@@H](C)O)NC(=O)[C@@H]2CCCN2C(=O)[C@@H]2CCCN2C1=O
B4: compound Hex-[Cys-Pro-Pro-Thr-Glu-Phe-Cys]-Asp-Lys(N4Ac)-NH2 (1021) (peptide)
peptide: Hexanoyl-CPPTEFCDK(N4Ac)-NH2
modifications: disulfide 1-7
SMILES: CCCCCC(=O)N[C@H]1CSSC[C@@H](C(=O)N[C@@H](CC(=O)O)C(=O)N[C@@H](CCCCNC(=O)C(CNCCN)CNCCN)C(N)=O)NC(=O)[C@H](Cc2ccccc2)NC(=O)[C@H](CCC(=O)O)NC(=O)[C@H]([C@@H](C)O)NC(=O)[C@@H]2CCCN2C(=O)[C@@H]2CCCN2C1=O
B5: compound Buur-[Cys-Pro-Pro-Thr-Glu-Phe-Cys]-Asp-Lys(DOTA)-NH2 (1015) (peptide)
peptide: Buur-CPPTEFCDK(DOTA)-NH2
modifications: disulfide 1-7
SMILES: CCCCNC(=O)N[C@H]1CSSC[C@@H](C(=O)N[C@@H](CC(=O)O)C(=O)N[C@@H](CCCCNC(=O)CN2CCN(CC(=O)O)CCN(CC(=O)O)CCN(CC(=O)O)CC2)C(N)=O)NC(=O)[C@H](Cc2ccccc2)NC(=O)[C@H](CCC(=O)O)NC(=O)[C@H]([C@@H](C)O)NC(=O)[C@@H]2CCCN2C(=O)[C@@H]2CCCN2C1=O
B6: compound Hex-[Cys-Pro-Pro-Thr-Glu-Phe-Cys]-Asp-Lys(DOTA)-NH2 (1013) (peptide)
peptide: Hexanoyl-CPPTEFCDK(DOTA)-NH2
modifications: disulfide 1-7
SMILES: CCCCCC(=O)N[C@H]1CSSC[C@@H](C(=O)N[C@@H](CC(=O)O)C(=O)N[C@@H](CCCCNC(=O)CN2CCN(CC(=O)O)CCN(CC(=O)O)CCN(CC(=O)O)CC2)C(N)=O)NC(=O)[C@H](Cc2ccccc2)NC(=O)[C@H](CCC(=O)O)NC(=O)[C@H]([C@@H](C)O)NC(=O)[C@@H]2CCCN2C(=O)[C@@H]2CCCN2C1=O
B7: compound DOTA-O2Oc-Nle-[Cys(mli)-Pro-Pro-Thr-Gln-Phe-Cys]-Asp-NH2 (2004) (peptide)
peptide: {DOTA-O2Oc}-[Nle]CPPTQFCD-NH2
modifications: linker 2-8 via mli
B8: compound DOTA-Ttds-Nle-[Cys-Pro-Pro-Thr-Glu-Phe-Cys]-Asp-Pamb-Arg-NH2 (1007) (peptide)
peptide: {DOTA-Ttds}-[Nle]CPPTEFCD[4Amb]R-NH2
modifications: disulfide 2-8
notes: By the running order it belongs to 1007
B9: compound DOTA-Ttds-Nle-[Cys(mli)-Pro-Pro-Thr-Gln-Phe-Cys]-Asp-Pamb-Arg-NH2 (2006) (peptide)
peptide: {DOTA-Ttds}-[Nle]CPPTQFCD[4Amb]R-NH2
modifications: linker 2-8 via Maleimide(3,4-diyl)
B10: compound Hex-[Cys-Pro-Pro-Thr-Glu-Phe-Cys]-Asp-His-Phe-Arg-Asp-NH2 (1002) (peptide)
peptide: Hexanoyl-CPPTEFCDHFRD-NH2
modifications: disulfide 1-7
B11: compound DOTA-Ttds-Nle-[Cys(mli)-Pro-Pro-Thr-Gln-Phe-Cys]-Asp-NH2 (2005) (peptide)
peptide: {DOTA-Ttds}-[Nle]CPPTQFCD-NH2
modifications: linker 2-8 via mli
B12: compound Hex-[Hcy-Pro-Pro-Thr-Gln-Phe-Hcy]-Asp-NH2 (2002) (peptide)
peptide: Hexanoyl-[hCys]PPTQF[hCys]D-NH2
modifications: disulfide 1-7
B13: compound Hex-[Cys(mli)-Pro-Pro-Thr-Gln-Phe-Cys]-Asp-Lys(DOTA)-NH2 (2012) (peptide)
peptide: Hexanoyl-CPPTQFCDK(DOTA)-NH2
modifications: linker 1-7 via mli
B14: compound DOTA-Nle-[Cys(mli)-Pro-Pro-Thr-Gln-Phe-Cys]-Asp-NH2 (2003) (peptide)
peptide: {DOTA}-[Nle]CPPTQFCD-NH2
modifications: linker 2-8 via mli
B15: compound H-Met-[Cys-Pro-Pro-Thr-Glu-Phe-Cys]-Asp-His-Phe-Arg-Asp-NH2 (1001) (peptide)
peptide: MCPPTEFCDHFRD
HELM: PEPTIDE1{M.C.P.P.T.E.F.C.D.H.F.R.D.[am]}$PEPTIDE1,PEPTIDE1,2:R3-8:R3$$$V2.0
SMILES: CSCC[C@H](N)C(=O)N[C@H]1CSSC[C@@H](C(=O)N[C@@H](CC(=O)O)C(=O)N[C@@H](Cc2c[nH]cn2)C(=O)N[C@@H](Cc2ccccc2)C(=O)N[C@@H](CCCNC(=N)N)C(=O)N[C@@H](CC(=O)O)C(N)=O)NC(=O)[C@H](Cc2ccccc2)NC(=O)[C@H](CCC(=O)O)NC(=O)[C@H]([C@@H](C)O)NC(=O)[C@@H]2CCCN2C(=O)[C@@H]2CCCN2C1=O
B16: compound Buur-[Cys-Pro-Pro-Thr-Glu-Phe-Cys]-Bhk(DOTA)-OH (1014) (peptide)
peptide: {Buur″}-CPPTEFC[β3hK](DOTA)-OH
modifications: disulfide 1-7
SMILES: CCCCNC(=O)N[C@H]1CSSC[C@@H](C(=O)N[C@@H](CCCCNC(=O)CN2CCN(CC(=O)O)CCN(CC(=O)O)CCN(CC(=O)O)CC2)CC(=O)O)NC(=O)[C@H](Cc2ccccc2)NC(=O)[C@H](CCC(=O)O)NC(=O)[C@H]([C@@H](C)O)NC(=O)[C@@H]2CCCN2C(=O)[C@@H]2CCCN2C1=O
B17: compound Hex-[Cys(mli)-Pro-Pro-Thr-Glu-Phe-Cys]-Bhk(DOTA)-OH (2011) (peptide)
peptide: Hexanoyl-CPPTEFC[β3hK](DOTA)-OH
modifications: linker 1-7 via Maleimide(3,4-diyl)
SMILES: CCCCCC(=O)N[C@H]1CSC2=C(SC[C@@H](C(=O)N[C@@H](CCCCNC(=O)CN3CCN(CC(=O)O)CCN(CC(=O)O)CCN(CC(=O)O)CC3)CC(=O)O)NC(=O)[C@H](Cc3ccccc3)NC(=O)[C@H](CCC(=O)O)NC(=O)[C@H]([C@@H](C)O)NC(=O)[C@@H]3CCCN3C(=O)[C@@H]3CCCN3C1=O)C(=O)NC2=O
B18: compound Hex-[Cys-Pro-Pro-Thr-Glu-Phe-Cys]-Bhk(DOTA)-OH (1012) (peptide)
peptide: Hexanoyl-CPPTEFC[β3hK](DOTA)-OH
modifications: disulfide 1-7
SMILES: CCCCCC(=O)N[C@H]1CSSC[C@@H](C(=O)N[C@@H](CCCCNC(=O)CN2CCN(CC(=O)O)CCN(CC(=O)O)CCN(CC(=O)O)CC2)CC(=O)O)NC(=O)[C@H](Cc2ccccc2)NC(=O)[C@H](CCC(=O)O)NC(=O)[C@H]([C@@H](C)O)NC(=O)[C@@H]2CCCN2C(=O)[C@@H]2CCCN2C1=O
B19: compound Hex-[Cys(mli)-Pro-Pro-Thr-Gln-Phe-Cys]-Asp-NH2 (2001) (peptide)
peptide: Hexanoyl-CPPTQFCD-NH2
modifications: linker 1-7 via mli
B20: compound DOTA-Ttds-Nle-[Cys(mli)-Pro-Pro-Thr-Glu-Phe-Cys]-Asp-NH2 (2007) (peptide)
peptide: {DOTA-Ttds}-[Nle]CPPTEFCD-NH2
modifications: linker 2-8 via mli
B21: compound DOTA-Ttds-Nle-[Cys-Pro-Pro-Thr-Glu-Phe-Cys]-Asp-NH2 (1003) (peptide)
peptide: {DOTA-Ttds}-[Nle]CPPTEFCD-NH2
modifications: disulfide 2-8
B22: compound Hex-[Cys(mli(DOTA-Ttd))-Pro-Pro-Thr-Glu-Phe-Cys]-Asp-NH2 (2020) (peptide)
peptide: Hexanoyl-CPPTEFCD-NH2
modifications: linker 1-7 via mli(DOTA-Ttd)
B23: compound DOTA-Nle-[Cys-Pro-Pro-Thr-Glu-Phe-Cys]-Asp-NH2 (1004) (peptide)
peptide: CPPTEFCD
HELM: PEPTIDE1{[O=C(O)CN1CCN(CC(=O)O)CCN(CC(=O)[*:2])CCN(CC(=O)O)CC1].[Nle].C.P.P.T.E.F.C.D.[am]}$PEPTIDE1,PEPTIDE1,3:R3-9:R3$$$V2.0
SMILES: CCCC[C@H](NC(=O)CN1CCN(CC(=O)O)CCN(CC(=O)O)CCN(CC(=O)O)CC1)C(=O)N[C@H]1CSSC[C@@H](C(=O)N[C@@H](CC(=O)O)C(N)=O)NC(=O)[C@H](Cc2ccccc2)NC(=O)[C@H](CCC(=O)O)NC(=O)[C@H]([C@@H](C)O)NC(=O)[C@@H]2CCCN2C(=O)[C@@H]2CCCN2C1=O

target: Recombinant human FAP (R&D systems, #3715-SE) (human, UniProt Q12884 26-760); experiment: cell-based or functional assay

pIC50 Category (Activity), FRET-based FAP protease activity assay [pIC50] | Binder
> 7 | B1
> 7 | B2
> 7 | B3
> 7 | B4
> 7 | B5
> 7 | B6
> 7 | B7
> 7 | B8
> 7 | B9
> 7 | B10
> 7 | B11
> 7 | B12
> 7 | B13
> 7 | B14
> 7 | B15
> 7 | B16
> 7 | B17
> 7 | B18
> 7 | B19
> 7 | B20
> 7 | B21
> 7 | B22
> 7 | B23

target: T1, fibroblast activation protein (FAP) on FAP-expressing human WI-38 fibroblasts (human, UniProt Q12884 1-760); experiment: competitive FACS on WI-38 cells vs 3 nM Cy5-labeled probe; A = pIC50 >7.0
T1 construct: Endogenous FAP on WI-38 cells (ECACC) in the FACS assay; also called human FAP
Experimental: FAP-expressing human WI-38 fibroblasts (ECACC) were cultured in EMEM including 15% fetal bovine serum, 2 mM L-Glutamine and 1% Non-essential amino acids. Cells were detached with Accutase (Biolegend, #BLD-423201) and washed in FACS buffer (PBS including 1% FBS). Cells were diluted in FACS buffer to a final concentration of 100.000 cells per ml and 200 μl of the cell suspension are transferred to a u-shaped non-binding 96-well plate (Greiner). […] Cell were washed twice with FACS buffer and resuspended in 200 μl FACS buffer. Cells were analyzed in an Attune NxT flow cytometer. Median fluorescence intensities (Cy5 channel) was calculated by Attune NxT software and plotted against peptide concentrations. Four parameter logistic (4PL) curve fitting and pIC50 calculations were performed using ActivityBase software.

pIC50 Category (FACS) [pIC50] | Binder
> 7 | B1
> 7 | B2
> 7 | B3
> 7 | B4
> 7 | B5
> 7 | B6
> 7 | B7
> 7 | B8
> 7 | B9
> 7 | B10
> 7 | B11
> 7 | B12
> 7 | B13
> 7 | B14
> 7 | B15
> 7 | B16
> 7 | B17
> 7 | B18
> 7 | B19
